Publication PMC10138814

Assays:
[1] = biological target: mCherry-LaM1 complex (llama); test: ITC; 100 uM nanobody in the syringe into 10 uM mCherry (or 8.9 uM mCherry-LaM1 or mCherry-LaM3 complex) in the cell; 25 °C; one set of sites
[2] = biological target: mCherry-LaM3 complex (llama); test: as above

Kd [1]: 54 nM | dH [1]: -10.3 kcal/mol | stoichiometry N [1]: 0.854 sites | Kd [2]: 236 nM | dH [2]: -9.99 kcal/mol | stoichiometry N [2]: 0.799 sites
B1: LaM8 (VHH)
VHH: QVQLVESGGGLVQAGGSLRLSCAVSGRPFSEYNLGWFRQAPGKEREFVARIRSSGTTVYTDSVKGRFSASRDNAKNMGYLQLNSLEPEDTAVYYCAMSRVDTDSPAFYDYWGQGTQVTVST
